Source: US20230131338A1 (Regeneron, published 2023)

How the values were obtained:
[1] = target: T1, cynomolgus monkey FXI (in pooled cynomolgus monkey plasma) (cynomolgus monkey, UniProt A0A2K5VVW4 19-624); assay: cell-based or functional assay
[2] = target: T1, cynomolgus monkey FXI (in pooled …); assay: cell-based or functional assay; remark: listed apart in the source
[3] = target: recombinant mouse FXI with C-terminal myc-myc-hexahistidine tag (mFXI.mmH) (mouse, UniProt Q91Y47 19-624, limits assumed); assay: SPR, REGN9933 surface-captured, 25°C, pH 7.4
[4] = target: recombinant rabbit FXI with C-terminal myc-myc-hexahistidine tag (rbFXI.mmH) (rabbit, UniProt G1SSQ6 19-623); assay: SPR, REGN9933 surface-captured, mmH-tagged protein injected, 25°C, pH 7.4, 1:1 steady-state model

- concentration at which aPTT doubles relative to baseline, pooled cynomolgus monkey plasma [1]: 1.1 µM
- Fold Increase in Clotting Time (aPTT w/EA), maximum change, monkey plasma [2]: 2.1 fold
- TGA % ETP (induced w/EA), relative to baseline, monkey plasma [2]: 66%
- TGA % Peak Thrombin (induced w/EA), relative to baseline, monkey plasma [2]: 43%
- TGA Fold Increase in Lag Time (induced w/EA), maximum change, monkey plasma [2]: 2.2 fold
- binding result [3]: no binding (tested: 50 nM)
- Kd [4]: 171 nM
B1: REGN9933 (antibody, human IgG4 S228P, kappa, V domains shown)
VH: EVQLVESGGGLVQPGGSLRLSCAASGFTFSNYAMNWVRQAPGKGLDWVSFIRSGGDTTYYADSVKGRFTISRDNSKNTLYLQMNSLRAEDTAVYYCAKVHPYTWDYGDAFDIWGQGTMVTVSS
VL: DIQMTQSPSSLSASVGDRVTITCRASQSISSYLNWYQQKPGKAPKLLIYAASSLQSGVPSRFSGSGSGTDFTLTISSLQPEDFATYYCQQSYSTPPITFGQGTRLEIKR
notes: Fully human; hinge-stabilized IgG4 (IgG4P) Fc; also called H4H29790P2; subject anti-FXI mAb
